# PMC10786891, “Massively parallel profiling of RNA-targeting CRISPR-Cas13d”
# Numbering of substitutions follows the chain as printed. In names and notes the source's numbering stands.
# T1: EsCas13d, nuclease-dead (Eubacterium siraeum, UniProt B0MS50, R295A;H300A;R849A;H854A)
# T1 sequence: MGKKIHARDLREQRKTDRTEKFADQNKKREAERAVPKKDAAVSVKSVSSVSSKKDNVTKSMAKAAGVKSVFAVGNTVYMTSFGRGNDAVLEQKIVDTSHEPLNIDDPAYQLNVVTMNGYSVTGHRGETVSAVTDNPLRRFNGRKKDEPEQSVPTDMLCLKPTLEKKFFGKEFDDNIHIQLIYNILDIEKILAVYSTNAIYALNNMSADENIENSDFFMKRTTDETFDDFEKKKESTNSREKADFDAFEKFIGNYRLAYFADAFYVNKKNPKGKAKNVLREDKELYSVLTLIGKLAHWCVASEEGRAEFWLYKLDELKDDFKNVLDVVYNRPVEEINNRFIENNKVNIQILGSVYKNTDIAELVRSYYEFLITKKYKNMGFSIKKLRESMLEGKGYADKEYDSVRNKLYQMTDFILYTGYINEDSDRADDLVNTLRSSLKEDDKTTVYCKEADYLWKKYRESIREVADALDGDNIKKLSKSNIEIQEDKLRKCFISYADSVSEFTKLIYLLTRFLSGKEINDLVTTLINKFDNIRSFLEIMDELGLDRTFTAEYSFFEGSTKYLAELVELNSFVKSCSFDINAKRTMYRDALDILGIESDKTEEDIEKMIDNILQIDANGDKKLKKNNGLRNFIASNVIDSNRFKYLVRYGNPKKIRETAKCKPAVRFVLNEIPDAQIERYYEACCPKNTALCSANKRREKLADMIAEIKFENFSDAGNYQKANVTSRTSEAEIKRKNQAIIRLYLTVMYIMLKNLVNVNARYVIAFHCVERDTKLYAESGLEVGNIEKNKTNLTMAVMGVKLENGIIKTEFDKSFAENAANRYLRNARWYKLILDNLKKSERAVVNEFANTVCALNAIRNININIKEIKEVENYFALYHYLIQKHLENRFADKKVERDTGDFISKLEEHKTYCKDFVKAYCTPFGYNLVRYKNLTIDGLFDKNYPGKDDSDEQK
# B1: target 1 insG 3' of 3,insU 3' of 1 (mixed)
# RNA 1: CACCCGUGCAAAAAUGCAGGGGUCUAAAACUGAGCGGAUAACCUCUCUAUGG
# RNA 2: GGGAAUGGAUCCACAUCUACGAAUUCGUACCAUAGAGAGGUUAUCCGCUGCAUCCGAGAUCGGAAGAGCACACGU
# B2: target 1 C7U,A14G (mixed)
# RNA 1: B1 RNA 1
# RNA 2: GGGAAUGGAUCCACAUCUACGAAUUCGUACCAUAGAGGGGUUAUUCGCUCACCGAGAUCGGAAGAGCACACGU
# B3: target 1 insC 3' of 20,insA 3' of 3 (mixed)
# RNA 1: B1 RNA 1
# RNA 2: GGGAAUGGAUCCACAUCUACGAAUUCGUACCACUAGAGAGGUUAUCCGCUACACCGAGAUCGGAAGAGCACACGU
# B4: target 1 insU 3' of 12,insU 3' of 2 (mixed)
# RNA 1: B1 RNA 1
# RNA 2: B1 RNA 2 with A43U, U44A, C45U, G47C, C48G, U49C, G50U, A52U, U53A
# B5: target 1 G5C,G17C (mixed)
# RNA 1: B1 RNA 1
# RNA 2: B2 RNA 2 with G35C, G38A, U45C, G47C
# B6: target 1 insU 3' of 13,insU 3' of 12 (mixed)
# RNA 1: B1 RNA 1
# RNA 2: GGGAAUGGAUCCACAUCUACGAAUUCGUACCAUAGAGAGUGUUUAUCCGCUCACCGAGAUCGGAAGAGCACACGU
# B7: target 1 insG 3' of 21,insA 3' of 21 (mixed)
# RNA 1: B1 RNA 1
# RNA 2: B6 RNA 2 with A32G, U33A, G35U, U40A, U42G
# B8: target 1 insA 3' of 17,insC 3' of 10 (mixed)
# RNA 1: B1 RNA 1
# RNA 2: B6 RNA 2 with G37A, A38G, G39A, U40G, U44C
# B9: target 1 C6G,G12U (mixed)
# RNA 1: B1 RNA 1
# RNA 2: B2 RNA 2 with G38A, G40U, U45C, C46G
# B10: target 1 C2G,C4G (mixed)
# RNA 1: B1 RNA 1
# RNA 2: B2 RNA 2 with G38A, U45C, C48G, C50G
# B11: target 1 insU 3' of 22,insG 3' of 18 (mixed)
# RNA 1: B1 RNA 1
# RNA 2: B6 RNA 2 with C31U, A32C, U33A, A34U, G35A, A36G, U40A, U42G
# B12: target 1 insU 3' of 18,insA 3' of 8 (mixed)
# RNA 1: B1 RNA 1
# RNA 2: B3 RNA 2 with C33U, U34A, A35U, C46A, G48C, C49G, U50C, A51U
# B13: target 1 insG 3' of 8,insG 3' of 6 (mixed)
# RNA 1: B1 RNA 1
# RNA 2: B6 RNA 2 with U40G, G41U, U43A, A45G, U46C, C48G
# B14: target 1 G5U,A9C (mixed)
# RNA 1: B1 RNA 1
# RNA 2: B2 RNA 2 with G38A, A43C, U45C, G47U
# B15: target 1 insA 3' of 7,insU 3' of 6 (mixed)
# RNA 1: B1 RNA 1
# RNA 2: B6 RNA 2 with U40G, G41U, U43A, A45C, U46A, C48U
# B16: target 1 insA 3' of 15,insU 3' of 9 (mixed)
# RNA 1: B1 RNA 1
# RNA 2: B6 RNA 2 with G39A, U40G, U44A, A45U
# B17: target 1 insG 3' of 19,insG 3' of 16 (mixed)
# RNA 1: B1 RNA 1
# RNA 2: B6 RNA 2 with A34G, G35A, A36G, G37A, A38G, U40A, U42G
# B18: target 1 G15A,C22U (mixed)
# RNA 1: B1 RNA 1
# RNA 2: B2 RNA 2 with C30U, G37A, G38A, U45C
# B19: target 1 insA 3' of 22,insG 3' of 2 (mixed)
# RNA 1: B1 RNA 1
# RNA 2: B3 RNA 2 with C31A, A32C, C33A, A51C, C52G
# B20: target 1 insU 3' of 20,insC 3' of 14 (mixed)
# RNA 1: B1 RNA 1
# RNA 2: B6 RNA 2 with A34U, G35A, A36G, G37A, A38G, G39A, U40C, U42G
# B21: target 1 G5C,U10A (mixed)
# RNA 1: B1 RNA 1
# RNA 2: B2 RNA 2 with G38A, U42A, U45C, G47C
# B22: target 1 C6U,A9U (mixed)
# RNA 1: B1 RNA 1
# RNA 2: B2 RNA 2 with G38A, A43U, U45C, C46U
# B23: target 1 insC 3' of 22,insU 3' of 18 (mixed)
# RNA 1: B1 RNA 1
# RNA 2: B6 RNA 2 with A32C, U33A, A34U, G35A, A36U, U40A, U42G
# B24: target 1 C4U,G12A (mixed)
# RNA 1: B1 RNA 1
# RNA 2: B2 RNA 2 with G38A, G40A, U45C, C48U
# B25: target 1 insU 3' of 9,insG 3' of 3 (mixed)
# RNA 1: B1 RNA 1
# RNA 2: B1 RNA 2 with C45U, G47C, C48G, U49C, G50U, C51G, A52C, U53A
# B26: target 1 U8G,U10A (mixed)
# RNA 1: B1 RNA 1
# RNA 2: B2 RNA 2 with G38A, U42A, U44G, U45C
# B27: target 1 insC 3' of 18,insU 3' of 15 (mixed)
# RNA 1: B1 RNA 1
# RNA 2: B6 RNA 2 with G35C, A36G, G37A, A38G, G39U, U40A, U42G
# B28: target 1 insU 3' of 12,insC 3' of 11 (mixed)
# RNA 1: B1 RNA 1
# RNA 2: B6 RNA 2 with U40G, G41U, U43C
# B29: target 1 C4A,C6G (mixed)
# RNA 1: B1 RNA 1
# RNA 2: B2 RNA 2 with G38A, U45C, C46G, C48A
# B30: target 1 insA 3' of 21,insC 3' of 10 (mixed)
# RNA 1: B1 RNA 1
# RNA 2: B3 RNA 2 with C33A, A44C, U45A, C46U, G48C, C49G, U50C, A51U
# B31: target 1 del3,del9 (mixed)
# RNA 1: B1 RNA 1
# RNA 2: GGGAAUGGAUCCACAUCUACGAAUUCGUACCAUAGAGAGGUUUCCGCCACCGAGAUCGGAAGAGCACACGU
# B32: target 1 del7,del8 (mixed)
# RNA 1: B1 RNA 1
# RNA 2: B31 RNA 2 with U43A, C45G, G46C, C47U
# B33: target 1 G12U,A16G (mixed)
# RNA 1: B1 RNA 1
# RNA 2: B2 RNA 2 with A36G, G38A, G40U, U45C
# Target: T1, EsCas13d, nuclease-dead
# Assay: crRNA (strand 1, pre-loaded); Mg2+; 40 mM Tris-HCl pH 7.5, 150 mM NaCl, 6 mM MgCl2, 1 mM DTT, 0.1% Tween-20, 0.2 mg/ml BSA; 25 C; 10 min per concentration, then washed
# Conditions: tags: His6-TwinStrep-SUMO cleaved; N-terminal SNAP kept (SNAP-Surface 488); label: 3' end held by stalled T7 RNA polymerase
row,Binder,Kd [nM]
1,B1,9.04 ± 0.35
2,B2,16.5 ± 1.6
3,B3,8.76 ± 0.32
4,B4,8.3 ± 0.8
5,B5,48 ± 6
6,B6,11.8 ± 1.3
7,B7,27.3 ± 3.5
8,B8,27 ± 6
9,B9,13.7 ± 1.2
10,B10,7 ± 0.4
11,B11,84 ± 17
12,B12,55 ± 4
13,B13,7.05 ± 0.26
14,B14,60 ± 6
15,B15,7.6 ± 0.5
16,B16,24.4 ± 3.1
17,B17,97 ± 16

row,Binder,Kd [nM]
1,B18,17.7 ± 2.4
2,B19,12.2 ± 0.9
3,B20,51 ± 16
4,B21,11.8 ± 0.6
5,B22,8.2 ± 0.4
6,B23,38 ± 9
7,B24,23.7 ± 3
8,B25,12.7 ± 0.6
9,B26,19.7 ± 1.2
10,B27,82 ± 33
11,B28,25 ± 4
12,B29,5.4 ± 0.4
13,B30,57 ± 8
14,B31,40 ± 5
15,B32,10.6 ± 0.7
16,B33,43 ± 5
